From US20130004947A1, “LUCIFERASE-LINKED ANALYSIS OF DNA-METHYLTRANSFERASE, PROTEIN METHYLTRANSFERASE AND S-ADENOSYLHOMOCYSTEINE AND USES THEREOF” (priority 2010, published 2013) come the findings set out here.

Where “and” joins values, the source holds several entries; their conditions need not be identical. Equal values may be shown once. Read-outs that look alike come from different tables or passages of the source.

What all share (assay type): biochemical
Data set [1] deals with AdoMet and poly(dIdC). Description: continuous luciferase-linked AdoHcy assay of DNMT kinetics. The following applies: for activity of catalytic domain alone (initial reaction rates): without DNMT3L, even at high substrate and enzyme concentrations. Here is the method: AdoHcy to ATP Conversion Buffer. The 2×AdoHcy to ATP conversion buffer was prepared as previously described with minor modifications (17). In brief, 100 mL of buffer contained 100 mM Tris-acetate pH 7.7, 2 mM PEP, 2 mM sodium pyrophosphate, 2 mM PRPP, 15 mM (NH4)2SO4, 15 mM (NH4)2MoO4, and phosphatase inhibitors (Roche PhosSTOP, 10 tablets). A 4:1 cellulose:charcoal mixture was suspended in water and packed into a disposable mini-column to a bed volume of 1.5 mL, through which a 10 mL aliquot of the previously prepared buffer was passed at 2 mL/min to remove traces of adenine, AMP, and ATP. Treated buffer was filtered (0.2 μm) and stored in 1 mL aliquots at −80° C. Immediately prior to use, the 2× conversion buffer was completed by additions to give final concentrations of 10 mM MgSO4, 6 U APRTase, 18 U PPDK, and 250 nM MTAN and an increase in volume of 14 μL.
DNMT Kinetics using Continuous Luciferase Assay. Continuous assay buffer (2×) was prepared by adding 200 μl luciferin/luciferase (ATPlite) to 1 mL of the AdoHcy to ATP conversion buffer and warmed to room temperature. To 25 μL of this mixture was added AdoMet and the DNA substrate in DNMT assay buffer (25 mM HEPES pH 7.6, 50 mM KCl, 5% glycerol, 0.1% DTT) in a 96-well non-binding surface microplate. The mixture was incubated at room temperature for 3 min to permit any contaminating adenine, AMP, ATP or 5′-methylthioadenosine (MTA) to be converted to a stable background light signal as measured in the kinetic acquisition mode of the luminometer for 3 min. DNMT was added to give a final volume of 50 μL. After 3 min, the luminescent signal was measured for the following 3 min. […] Initial rates were calculated by subtracting the background rate from that obtained after DNMT addition. Initial rates were fitted to the Morrison equation for tight binding substrates with the exception of data obtained while using M.SssI CpG methyltransferase which were fit to the Michaelis-Menten equation. The Morrison equation was used as high enzyme concentrations were necessary and it could no longer be assumed that free substrate concentration was equal to total substrate concentration. The kinetic parameters Km and Vmax were obtained from these fits after converting the luminescent rate (RLU/s) to an enzymatic rate (pmol AdoHcy/h) using the AdoHcy standard curve. The AdoHcy standard curve was constructed by mixing 25 μL of DNMT assay buffer containing varied concentrations of AdoHcy with 25 μL of continuous assay buffer, incubating for several minutes, and then measuring the luminescence of each sample in the discontinuous acquisition mode of the luminometer. Values were background corrected using a mixture containing no AdoHcy.

Data set [2] concerns [methyl-3H]AdoMet and poly(dIdC). Kind of data set: radiometric filter paper assay of DNMT1 rate. The following applies: 258 nM DNMT1, 672 nM [methyl-3H]AdoMet. On the procedure: DNMT1 Rate Measurement using Radiometric Assay. The same two reactions were prepared as above for the discontinuous luciferase assay with the exception that 672 nM S-adenosyl-1-[methyl-^3H]methionine was used in place of non-radioactive AdoMet. 15 μL aliquots were removed from each reaction in triplicate at 2 min intervals from 2 to 8 min and spotted on 2.3 cm diameter Whatman DE81 filter paper circles which were allowed to dry for 30 min. The circles were washed with 0.2 M NH4HCO3 (4×2 mL), water (4×2 mL), and absolute ethanol (1×2 mL); each wash lasted 5 min before decanting the liquid. Circles were then dried for 1 h, then placed in scintillation vials and covered with 10 mL Betaplate Scint scintillation fluid. Radioactivity was measured on a Tricarb scintillation counter and background was corrected with a no-enzyme control. A conversion factor of 12 CPM/fmol was used.
Parallel reactions were performed with 672 nM [methyl-^3H]AdoMet to compare the initial rates from the luciferase assay with those obtained from the radiometric filter paper assay (4, 5). Reactions were limited to approximately 700 nM AdoMet because of the concentration of the [methyl/-^3H]AdoMet stock solution. The luciferase-linked assays were performed at the same AdoMet concentration. […] The dried circles were analyzed for radioactivity in a scintillation counter. […]

Data set [3] deals with AdoMet and poly(dIdC). Description: discontinuous luciferase-linked AdoHcy assay of DNMT1 rate. The following applies: 258 nM DNMT1, 682 nM AdoMet. Here is the method: DNMT1 Rate Measurement using Discontinuous Luciferase Assay. DNMT1 was added to a solution of 682 nM AdoMet and 1 μg poly(dIdC) in DNMT assay buffer to a concentration of 258 nM in 300 μL total volume which had been equilibrated to 22° C. or 37° C. A control reaction containing no DNMT1 was also performed at 37° C. 15 μL aliquots of the reaction were quenched with 5 μL of 100 mM HCl at 2 min intervals from 2 to 10 min in triplicate. These were neutralized with 5 μL of 100 mM KOH and were mixed with 25 μL of 2×AdoHcy to ATP conversion buffer and incubated at room temperature for several minutes. 20 μL of each mixture were then mixed with 80 μL of ATPlite in a 96-well non-binding surface microplate. These mixtures were incubated at room temperature for several minutes and their luminescence was measured in the single measurement mode of the luminometer. […]
Initial reaction rates for human DNMT1 were measured both at room temperature and at 37° C. […] After incubation at room temperature for ˜3 min, the luminescence of each sample was measured and an initial rate plot was constructed (FIG. 5A). Initial rates measured in RLU/s were converted to units of pmol/h with an AdoHcy standard curve constructed under the same assay conditions (Table 2). […] The discontinuous rates were readily measured even at low AdoMet concentrations, and the assay is suitable for automated screening. […]

“CD-DNMT3a: 286 amino acid C-terminal catalytic domain of human DNMT3a (residues 627-912), His6 tagged”: the “activity of catalytic domain alone (initial reaction rates)” value in data set [1] was “low activity”.
With “CD-DNMT3b: 286 amino acid C-terminal catalytic domain of human DNMT3b (residues 568-853), His6 tagged”, in data set [1], the “activity of catalytic domain alone (initial reaction rates)” value is recorded as “low activity”.
As for “DNMT1: full-length human DNA (cytosine 5)-methyltransferase 1, N-terminal His6 tag, expressed in SF9 cells”, the Initial rate in data set [2] (22° C.) is 11.6 pmol/h; in data set [2] (37° C.) it was 13.0 pmol/h; in data set [3] (22° C. (room temperature)), 6.3 pmol/h and 6.26 pmol/h; in data set [3] (37° C.) it was 7.5 pmol/h and 7.52 pmol/h; in data set [1] (continuous assay, 258 nM DNMT1, 682 nM AdoMet, 1 μg poly(dIdC) per 50 μL) it was 30 pmol/h and 30.1 pmol/h. Moreover, in data set [1] (room temperature), the Vmax was found to be 726 ± 75 pmol/h. Besides, the kcat in data set [1] (room temperature) was 0.00778 ± 0.00083 s⁻¹ and 0.00781 s⁻¹. Further, the Michaelis constant (Km) was 2.7 ± 0.7 µM in data set [1] (room temperature, 1 μg poly(dIdC), value as printed in the text, read-out: Km for AdoMet); 0.84 µM and 0.837 µM in data set [1] (room temperature, near saturating AdoMet: 35 μM for DNMT1, 10 μM for CD-DNMT3a/3b complexes with DNMT3L, read-out: Km DNA (poly(dIdC))); 2.66 ± 0.75 µM in data set [1] (room temperature, near saturating poly(dIdC), dIdC base pair concentration 16.4 μM, read-out: Km AdoMet).

As usually defined, the Vmax is the top rate of the reaction or transport when substrate is in excess. In general, kcat refers to the maximal rate divided by the concentration of active sites. A word on the Km: it is the substrate concentration at which the rate is half of its maximum.
